According to paper PMC9638941, “Molecular basis of dual anti-CRISPR and auto-regulatory functions of AcrIF24” (Nucleic Acids Research, 2022):
Numbering of substitutions follows the chain as printed.

T1: AcrIF24 S45Y (Pseudomonas aeruginosa prophage, UniProt A0AA82WNY5 1-228, S45Y)
T1 sequence: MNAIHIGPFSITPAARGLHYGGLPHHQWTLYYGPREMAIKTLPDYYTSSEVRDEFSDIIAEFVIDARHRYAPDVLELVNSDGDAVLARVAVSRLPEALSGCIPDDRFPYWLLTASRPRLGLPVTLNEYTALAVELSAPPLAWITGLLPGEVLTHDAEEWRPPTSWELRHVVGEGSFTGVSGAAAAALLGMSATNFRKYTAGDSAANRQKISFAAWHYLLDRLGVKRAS

T2: AcrIF24 K197Y (Pseudomonas aeruginosa prophage, UniProt A0AA82WNY5 1-228, K197Y)
T2 sequence: T1 sequence with Y45S, K197Y

T3: AcrIF24 R207W (Pseudomonas aeruginosa prophage, UniProt A0AA82WNY5 1-228, R207W)
T3 sequence: T1 sequence with Y45S, R207W

T4: AcrIF24 Y128K/Y217W (Pseudomonas aeruginosa prophage, UniProt A0AA82WNY5 1-228, Y128K;Y217W)
T4 sequence: T1 sequence with Y45S, Y128K, Y217W

T5: AcrIF24 R16W (Pseudomonas aeruginosa prophage, UniProt A0AA82WNY5 1-228, R16W)
T5 sequence: T1 sequence with R16W, Y45S

B1: IR-L (dsDNA)
DNA 1: CAGAATATCATTGCATAGCTCGATTCGAGCTAATATAGTAATACCAACAGCGCGGCACACCGCCAGCACTGAACCT
DNA 2: AGGTTCAGTGCTGGCGGTGTGCCGCGCTGTTGGTATTACTATATTAGCTCGAATCGAGCTATGCAATGATATTCTG
B2: IR-S (dsDNA)
DNA 1: TAGCTCGATTCGAGCTA
DNA 2: TAGCTCGAATCGAGCTA

How the values were obtained:
[1] = biological target: T1, AcrIF24 S45Y; experiment: EMSA; native PAGE; EMSA-P: 10 mM HEPES pH 7.5, 1 mM MgCl2, 20 mM KCl, 1 mM TCEP, 5% glycerol, 30 min on ice; 10% native 0.5x TBE gel, SYBR Gold; Cascade EMSA buffer not in material; details: protein: recombinant; chain copies: 2; label: none (SYBR Gold stain); blunt
[2] = biological target: T2, AcrIF24 K197Y; experiment: as above; details: protein: recombinant; chain copies: 2; label: none (SYBR Gold stain); blunt
[3] = biological target: T3, AcrIF24 R207W; experiment: as above; details: protein: recombinant; chain copies: 2; label: none (SYBR Gold stain); blunt
[4] = biological target: T4, AcrIF24 Y128K/Y217W; experiment: EMSA; EMSA-P: 10 mM HEPES pH 7.5, 1 mM MgCl2, 20 mM KCl, 1 mM TCEP, 5% glycerol, 30 min on ice; 10% native 0.5x TBE gel, SYBR Gold; Cascade EMSA buffer not in material; details: protein: recombinant; label: none (SYBR Gold stain); blunt
[5] = biological target: T1, AcrIF24 S45Y; experiment: EMSA; 1 uM protein; EMSA-P: 10 mM HEPES pH 7.5, 1 mM MgCl2, 20 mM KCl, 1 mM TCEP, 5% glycerol, 30 min on ice; 10% native 0.5x TBE gel, SYBR Gold; Cascade EMSA buffer not in material; details: protein: recombinant; chain copies: 2; label: none (SYBR Gold stain); blunt
[6] = biological target: T2, AcrIF24 K197Y; experiment: as above; details: protein: recombinant; chain copies: 2; label: none (SYBR Gold stain); blunt
[7] = biological target: T5, AcrIF24 R16W; experiment: as above; details: protein: recombinant; chain copies: 2; label: none (SYBR Gold stain); blunt
[8] = biological target: T3, AcrIF24 R207W; experiment: as above; details: protein: recombinant; chain copies: 2; label: none (SYBR Gold stain); blunt

Row | Binder | binding result [1] | binding result [2] | binding result [3] | binding result [4] | binding result [5] | binding result [6] | binding result [7] | binding result [8]
1 | B1 | binds | no binding | no binding | no binding | – | – | – | –
2 | B2 | – | – | – | – | binds | no binding | binds | no binding
